Molecular target: phosphopeptide of SEQ ID NO: 32, containing the PI3K ligand pY.V.P.M.L. (SEQ ID NO: 31)
Experiment: SPR (BIAcore); phosphopeptide immobilized via its C-terminal lysine, SH2 peptide injected at 0.5, 0.67, 1.0, 2.0 and 4.0 uM

Ka (binding affinity, printed in nM): 160 nM
Substance: N-terminal SH2 peptide of the PI3K p85

Source: patent US5981262
